Key:
[1] = test system: human HNF-1α; test: in vitro protein degradation test of HNF-1α by calpain (Western blotting); type: biochemical; settings: 1 hour at 37° C.
Protocol: Using the HNF-1α expression plasmid, in vitro synthesis of HNF-1α protein was carried out using the TNT T7 Quick Coupled Transcription/Translation System. That is, the HNF-1α expression plasmid was mixed with TNT T7 Quick Master Mix, and then incubated for 1.5 hours at 30° C. in the presence of methionine to synthesize HNF-1α. Thereafter, immunoprecipitation was conducted by adding anti-Xpress antibody to the synthesized HNF-1α, mixing by inversion for 1 hour at 4° C., and then adding Protein G Sepharose 4 Fast Flow and mixing by inversion for an additional 1 hour at 4° C. Subsequently, Protein G Sepharose was collected by centrifugation and washed 3 times with washing buffer (50 mM Tris-HCl, pH 7.5/150 mM NaCl/0.2% Nonidet P-40), followed by rinsing with 200 mM Tris-HCl (pH 7.8) to obtain the HNF-1α sample as 20% slurry (hereunder, referred to as “HNF-1α slurry”).
Protein degradation tests were carried out in vitro by adding μ-calpain or m-calpain to the HNF-1α slurry, and incubating for 1 hour at 37° C. in the presence of 200 mM Tris-HCl (pH 7.8)/1 mM DTT/6 mM CaCl2. The final concentrations of the respective calpain in the reaction system were as follows: 50 units/mL of human μ-calpain; 50 μg/mL of rabbit m-calpain as a protein concentration; and 59 units/mL of rat m-calpain. For a control experiment, an HNF-1α slurry was incubated without the addition of calpain in a similar manner in the presence of calcium. Further, to test for protein degradation in the absence of calcium, a sample was prepared by adding 10 mM of EDTA instead of 6 mM of CaCl2 and was incubated in the same manner. The samples after incubation were added to an equal volume of 2×SDS sample buffer, heated for 5 minutes, and then subjected to 5-20% SDS-PAGE for separation. Thereafter, Western blotting was carried out to detect HNF-1α using anti-Omni/M21 antibody (Santa Cruz Biotechnology, Inc.), which recognizes a His-Xpress region, and anti-HNF-1α antibody/HNF-1α (C-19) antibody (Santa Cruz Biotechnology, Inc.). An ECL Western blotting detection kit was used for conducting the detection.
In-vitro protein degradation tests were carried out in the same manner as in Example 7, but the lysate of sf-9 cells that coexpressed m-calpain with calpain small subunit 1 was used as m-calpain. The final concentration of the lysate of the sf-9 cells that expressed these proteins in the reaction system was 1.75 mg/mL as a protein concentration. The final concentration of rat m-calpain in the reaction system was 59 units/mL. Detection of HNF-1α was performed in the same manner as Example 7, but only anti-HNF-1α antibody/HNF-1α (C-19) antibody was used.

[2] = biological target: T1, human HNF-4α (Homo sapiens, UniProt P41235); test: binding test by intracellular coexpression/immunoprecipitation in HEK293T cells; type: cell-based; settings: FLAG-tagged m-calpain coexpressed with Xpress-tagged HNF-4α in HEK293T cells
T1 construct: expressed in transfected cells; host or cells: HEK293T
T1 sequence (P41235 10-474): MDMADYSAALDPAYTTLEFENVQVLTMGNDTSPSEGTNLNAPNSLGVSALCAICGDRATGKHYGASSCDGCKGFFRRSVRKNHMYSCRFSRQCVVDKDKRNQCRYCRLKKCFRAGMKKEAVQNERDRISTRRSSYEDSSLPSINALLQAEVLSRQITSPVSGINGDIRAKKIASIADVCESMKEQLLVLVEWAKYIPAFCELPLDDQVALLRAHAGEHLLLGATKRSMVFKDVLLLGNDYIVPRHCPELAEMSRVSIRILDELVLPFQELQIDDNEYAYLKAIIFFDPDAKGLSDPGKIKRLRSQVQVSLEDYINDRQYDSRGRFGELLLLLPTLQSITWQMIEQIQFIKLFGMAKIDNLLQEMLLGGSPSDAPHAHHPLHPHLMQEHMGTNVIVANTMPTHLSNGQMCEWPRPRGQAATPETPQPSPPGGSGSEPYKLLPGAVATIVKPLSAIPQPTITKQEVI
Protocol: First, the m-calpain gene was co-transfected with the HNF-4α gene into HEK293T cells. More specifically, after culturing a total number of 1.3×10^6 HEK293T cells for 4 hours at 37° C. in the presence of 5% CO2 (Petri dish with 60 mm diameter), 5 μg of HNF4α expression plasmid or pcDNA 3.1/His plasmid as a negative control was transfected thereto together with 5 μg of m-calpain expression plasmid using the FuGENE 6 Transfection Reagent (Roche Applied Science). After two days culturing, the cells were washed with cold phosphate buffered saline (−) (hereunder, referred to as “PBS(−)”), suspended in 500 μl of cell lysis buffer (20 mM HEPES, pH 7.5/150 mM NaCl/1 mM EDTA/1% Triton X-100/1 mM phenylmethyl sulfonyl fluoride (PMSF)), and left to stand on ice for 20 mins. Thereafter, the cells were subjected to centrifugation at 15,000 rpm for 20 min at 4° C. to collect the supernatant for use as cell lysate. Subsequently, the collected lysate was added to 18 μl of Protein G Sepharose 4 Fast Flow (Amersham Pharmacia Biotech) that was pretreated with TBS (pH 8.0) containing 0.1% bovine serum albumin, and mixed by inversion for 2 hours at 4° C., followed by centrifugation to collect the supernatant. 0.6 μg of anti-HNF-4α antibody/HNF-4α (C-19) antibody was added to the collected supernatant, and mixed by inversion for 1 hour at 4° C. […]

B1: human m-calpain: lysate of sf-9 insect cells coexpressing human m-calpain with calpain small subunit 1; FLAG-tagged, expressed in HEK293T cells, in Example 3 (protein, UniProt P17655 20-700; P04632 1-268, looked up)
Calpain-2 catalytic subunit: SHDRAIKYLNQDYEALRNECLEAGTLFQDPSFPAIPSALGFKELGPYSSKTRGIEWKRPTEICADPQFIIGGATRTDICQGALGDCWLLAAIASLTLNEEILARVVPLNQSFQENYAGIFHFQFWQYGEWVEVVVDDRLPTKDGELLFVHSAEGSEFWSALLEKAYAKINGCYEALSGGATTEGFEDFTGGIAEWYELKKPPPNLFKIIQKALQKGSLLGCSIDITSAADSEAITFQKLVKGHAYSVTGAEEVESNGSLQKLIRIRNPWGEVEWTGRWNDNCPSWNTIDPEERERLTRRHEDGEFWMSFSDFLRHYSRLEICNLTPDTLTSDTYKKWKLTKMDGNWRRGSTAGGCRNYPNTFWMNPQYLIKLEEEDEDEEDGESGCTFLVGLIQKHRRRQRKMGEDMHTIGFGIYEVPEELSGQTNIHLSKNFFLTNRARERSDTFINLREVLNRFKLPPGEYILVPSTFEPNKDGDFCIRVFSEKKADYQAVDDEIEANLEEFDISEDDIDDGFRRLFAQLAGEDAEISAFELQTILRRVLAKRQDIKSDGFSIETCKIMVDMLDSDGSGKLGLKEFYILWTKIQKYQKIYREIDVDRSGTMNSYEMRKALEEAGFKMPCQLHQVIVARFADDQLIIDFDNFVRCLVRLETLFKIFKQLDPENTGTIELDLISWLCFSVL
Calpain small subunit 1: MFLVNSFLKGGGGGGGGGGGLGGGLGNVLGGLISGAGGGGGGGGGGGGGGGGGGGGTAMRILGGVISAISEAAAQYNPEPPPPRTHYSNIEANESEEVRQFRRLFAQLAGDDMEVSATELMNILNKVVTRHPDLKTDGFGIDTCRSMVAVMDSDTTGKLGFEEFKYLWNNIKRWQAIYKQFDTDRSGTICSSELPGAFEAAGFHLNEHLYNMIIRRYSDESGNMDFDNFISCLVRLDAMFRAFKSLDKDGTGQIQVNIQEWLQLTMYS
modifications: FLAG tag
For B1, the “degradation of HNF-1α” value ([1]; in the absence of calcium (10 mM EDTA instead of CaCl2)) was “not observed”, the “degradation of HNF-1α” value ([1]; in the presence of calcium (6 mM CaCl2), Western blotting) was “observed” and the “binding to HNF-4α (coprecipitation with anti-HNF-4α antibody)” value [2] was “coprecipitated”.
